Results: publication PMC8217502

How the values were obtained:
[1] = biological target: F1FO-ATP synthase (complex V) (P. falciparum); experiment: native gel or EMSA; high molecular mass (HMM) complexome profiles: GCT3D experiment repeated on a 3-16% BN gel, only the top part of the gel (Mr app. >1000 kDa) analysed; gametocytes, digitonin
[2] = biological target: F1FO-ATP synthase (complex V) (P. falciparum); experiment: native gel or EMSA; complexome profiling after method 3 only (nitrogen cavitation without saponin, larger amounts of parasites; samples ABS3D and GCT3D), digitonin, BN-PAGE 4-16%, stacking gel also analysed
[3] = biological target: cytochrome bc1 complex (CIII) (P. falciparum) (UniProt Q7HP03); experiment: native gel or EMSA; complexome profiling: mitochondria-enriched fractions of mixed ABS parasites or stage V gametocytes (enrichment methods 1-3), solubilised with digitonin or DDM, BN-PAGE on 4-16% gradient gels, gel slices analysed by LC-MS/MS; comigration of iBAQ migration profiles

| stoichiometry N [1] | stoichiometry N [2] | stoichiometry N [3] | Substance |
| --- | --- | --- | --- |
| 2 | 2 |  | F1FO-ATP synthase (complex V) |
|  |  | 2 | cytochrome bc1 complex (CIII), Q7HP03 1-376; Q8I6U9 1-394; Q8IL75 1-355; Q8ILJ5 1-88; Q8IJS2 1-192; Q9NLB3 1-137; C0H4H6 1-96; Q8I2I2 1-484; Q8I3N3 1-534; Q8IBM6 1-79; A0A5K1K9E9 1-163; Q8IB13 1-54 |
